Results on 14 molecules are retold here after US20230357343A1 (ASHER BIOTHERAPEUTICS, published 2023).

In assay [1] the target is T1, mouse CD8 (mouse, UniProt P10300 22-175, limits assumed).
T1 construct: also called mouse CD8b
T1 sequence (looked up): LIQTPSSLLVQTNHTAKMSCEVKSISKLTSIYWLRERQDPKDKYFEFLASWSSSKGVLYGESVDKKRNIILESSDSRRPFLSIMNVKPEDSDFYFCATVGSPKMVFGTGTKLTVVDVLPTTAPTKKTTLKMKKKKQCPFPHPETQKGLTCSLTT
Nature of the assay: stated; no assay described.

Assay [2] concerns the target recombinant human IL-21R, extracellular domain fused to 8xHistidine tag (generated in house) (human, UniProt Q9HBE5 20-232). Description: SPR 37 C.
Assay [3] has as its target T2, Human IL-21R (Biolegend, Catalog No. 773104) (human, UniProt Q9HBE5 20-232, limits assumed).
T2 construct: Bought protein; also called IL-21 receptor
Description: SPR 37 C, Fc-captured fusion.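 Also: biacore SPR with anti-human IgG Fc surface and blank flow cell as reference, 10 min dissociation, double-referenced, 1:1 Langmuir fit with mass transport, triplicate runs.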

In assay [4] the target is T2, Human IL-21R (Biolegend, Catalog No. …). Nature of the assay: SPR 37 C.
The target in assay [5] is human CD8 on CD8+ T cells (human, UniProt P01732 22-235; P10966 22-210). Nature of the assay: cell-based or functional assay.
human CD8 on CD8+ T cells, sequence (P01732 22-235, chain 1 of 2): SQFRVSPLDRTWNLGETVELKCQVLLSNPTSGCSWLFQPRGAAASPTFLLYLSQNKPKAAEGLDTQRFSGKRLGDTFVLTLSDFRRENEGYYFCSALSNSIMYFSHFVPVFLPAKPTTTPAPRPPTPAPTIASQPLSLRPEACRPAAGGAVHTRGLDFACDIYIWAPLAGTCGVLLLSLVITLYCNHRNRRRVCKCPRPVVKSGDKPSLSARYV
human CD8 on CD8+ T cells, sequence (P10966 22-210, chain 2 of 2): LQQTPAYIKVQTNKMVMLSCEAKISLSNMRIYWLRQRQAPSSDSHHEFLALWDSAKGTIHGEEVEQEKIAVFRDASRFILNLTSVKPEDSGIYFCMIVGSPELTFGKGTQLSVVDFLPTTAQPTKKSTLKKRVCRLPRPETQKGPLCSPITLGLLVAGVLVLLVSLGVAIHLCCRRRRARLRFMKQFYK

T2 sequence (Q9HBE5 20-232 limits assumed): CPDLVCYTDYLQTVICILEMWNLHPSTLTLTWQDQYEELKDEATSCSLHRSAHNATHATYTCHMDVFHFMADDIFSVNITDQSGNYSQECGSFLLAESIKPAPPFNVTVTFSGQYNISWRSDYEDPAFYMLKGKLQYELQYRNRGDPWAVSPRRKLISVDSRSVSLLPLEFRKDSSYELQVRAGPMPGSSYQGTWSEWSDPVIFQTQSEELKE
recombinant human IL-21R, extracellular domain fused to 8xHistidine tag (generated in house), sequence (Q9HBE5 other isoform, or with tags, fused parts or gaps limits assumed): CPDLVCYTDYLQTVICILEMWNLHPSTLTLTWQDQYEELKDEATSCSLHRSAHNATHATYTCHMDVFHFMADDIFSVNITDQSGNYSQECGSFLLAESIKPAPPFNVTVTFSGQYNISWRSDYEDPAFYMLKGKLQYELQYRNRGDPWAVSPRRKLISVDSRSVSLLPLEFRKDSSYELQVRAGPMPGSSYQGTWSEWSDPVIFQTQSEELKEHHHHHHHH

B1: xhCD8v11 (antibody, V domains shown)
VH: EVQLVESGGGLVQPGGSLRLSCAASGFTFSSYAMSWVRQAPGKGLEWVSDITYAGGSTAYADSVKGRFTISRDNAKNSLYLQMNSLRAEDTAVYYCARSNAYAWDDALDIWGQGTLVTVSS
VL: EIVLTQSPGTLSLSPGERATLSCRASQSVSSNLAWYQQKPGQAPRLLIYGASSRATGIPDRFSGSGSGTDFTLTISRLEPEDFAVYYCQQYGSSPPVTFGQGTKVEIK
notes: used as targeting arm of fusions
With B1, the binding result in assay [1] is “no binding”.

B2: xhCD8.1-hIL21 v2.20 (other)
chain: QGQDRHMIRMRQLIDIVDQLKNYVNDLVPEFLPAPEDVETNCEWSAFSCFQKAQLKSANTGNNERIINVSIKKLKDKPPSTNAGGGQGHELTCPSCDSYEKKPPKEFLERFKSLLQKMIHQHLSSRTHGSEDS
VH: QVQLVQSGAEVKKPGSSVKVSCKASGGTFSSYAISWVRQAPGQGLEWMGGIIPGYATANYAQKFQGRVTITADESTSTAYMELSSLRSEDTAVYYCARDAAGIRLFADWGQGTLVTVSS
VL: DIQMTQSPSSLSASVGDRVTITCRASQSIYGALNWYQQKPGKAPKLLIYGASNLQSGVPSRFSGSGSGTDFTLTISSLQPEDFATYYCQSTYTAPWTFGGGTKVEIK
notes: hIgG1/kappa; IL-21 part on one heavy-chain C-terminus via (G4S)3 linker
Take B2: in assay [2], the binding result is recorded as “no binding”.

B3: xhCD8.1-hIL21 v29 (other)
chain: QGQDRHMIRMRQLIDIVDQLKNYVNDLVPEFLPAPEDVETNCEWSAFSCFQKAQLKSANTGNNERIINVSIKKLKRKPPGGGGEGGGGGEGGCPSCDSYEKKPPKEFLERFKSLLQKMIHQHLSSRTHGSEDS
VH: QVQLVQSGAEVKKPGSSVKVSCKASGGTFSSYAISWVRQAPGQGLEWMGGIIPGYATANYAQKFQGRVTITADESTSTAYMELSSLRSEDTAVYYCARDAAGIRLFADWGQGTLVTVSS
VL: DIQMTQSPSSLSASVGDRVTITCRASQSIYGALNWYQQKPGKAPKLLIYGASNLQSGVPSRFSGSGSGTDFTLTISSLQPEDFATYYCQSTYTAPWTFGGGTKVEIK
notes: as for B2
As a reminder, the Kd is the constant that tells how readily two partners part at equilibrium. A lower Kd goes with a tighter complex. In general, koff refers to the first-order rate constant of dissociation. The low end stands for a long-lived complex, the high end for a short-lived complex. By kon is commonly meant the second-order rate constant of association. In assay [3], B3 displayed a Kd of 0.094 nM, a koff of 0.00119 s⁻¹ and a kon of 1.27e+07 M⁻¹ s⁻¹. Moreover, the “fold difference in IL-21R affinity against wild type IL-21” value (from here on “fold difference in IL-21R affinity”) in assay [4] is at most 2 fold.

B4: xhCD8.1-hIL21 v28 (other)
chain: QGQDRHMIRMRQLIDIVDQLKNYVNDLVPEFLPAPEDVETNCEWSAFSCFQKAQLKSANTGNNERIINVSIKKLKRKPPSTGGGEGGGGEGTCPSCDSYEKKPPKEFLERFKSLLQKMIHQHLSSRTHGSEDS
VH: QVQLVQSGAEVKKPGSSVKVSCKASGGTFSSYAISWVRQAPGQGLEWMGGIIPGYATANYAQKFQGRVTITADESTSTAYMELSSLRSEDTAVYYCARDAAGIRLFADWGQGTLVTVSS
VL: DIQMTQSPSSLSASVGDRVTITCRASQSIYGALNWYQQKPGKAPKLLIYGASNLQSGVPSRFSGSGSGTDFTLTISSLQPEDFATYYCQSTYTAPWTFGGGTKVEIK
notes: as for B2
In assay [3], B4 had a dissociation constant Kd of 0.106 nM, an off-rate constant (koff) of 0.00139 s⁻¹ and an on-rate (kon) of 1.31e+07 M⁻¹ s⁻¹. In assay [4], the “fold difference in IL-21R affinity” value was at most 2 fold.

B5: xhCD8.1-hIL21 v2.43 (other)
chain: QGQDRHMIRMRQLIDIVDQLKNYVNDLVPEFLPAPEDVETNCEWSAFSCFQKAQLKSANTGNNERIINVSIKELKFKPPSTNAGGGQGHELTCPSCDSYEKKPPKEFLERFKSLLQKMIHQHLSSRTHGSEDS
VH: QVQLVQSGAEVKKPGSSVKVSCKASGGTFSSYAISWVRQAPGQGLEWMGGIIPGYATANYAQKFQGRVTITADESTSTAYMELSSLRSEDTAVYYCARDAAGIRLFADWGQGTLVTVSS
VL: DIQMTQSPSSLSASVGDRVTITCRASQSIYGALNWYQQKPGKAPKLLIYGASNLQSGVPSRFSGSGSGTDFTLTISSLQPEDFATYYCQSTYTAPWTFGGGTKVEIK
notes: as for B2
In the case of B5, in assay [2], the binding result is “no binding”.

B6: xhCD8.1-hIL21 v2.63 (other)
chain: QGQDRHMIRMRQLIDRIDQLKNYVNDLVPEFLPAPEDVETNCEWSAFSCFQKAQLKSANTGNNERIINVSIKKIKRKPPSTNAGGGQGHELTCPSCDSYEKKPPKEFLERFKSLLQKMIHQHLSSRTHGSEDS
VH: QVQLVQSGAEVKKPGSSVKVSCKASGGTFSSYAISWVRQAPGQGLEWMGGIIPGYATANYAQKFQGRVTITADESTSTAYMELSSLRSEDTAVYYCARDAAGIRLFADWGQGTLVTVSS
VL: DIQMTQSPSSLSASVGDRVTITCRASQSIYGALNWYQQKPGKAPKLLIYGASNLQSGVPSRFSGSGSGTDFTLTISSLQPEDFATYYCQSTYTAPWTFGGGTKVEIK
notes: as for B2
Regarding B6, the “STAT3 activation in human whole blood (pSTAT3, flow cytometry)” value (“STAT3 activation in human whole blood” for short) in assay [5] was over 100 fold.

B7: xhCD8.1-hIL21 v2.64 (other)
chain: QGQDRHMIRMRQFIDAADQLKNYVNDLVPEFLPAPEDVETNCEWSAFSCFQKAQLKSANTGNNERIINVSIKKMKRKPPSTNAGGGQGHELTCPSCDSYEKKPPKEFLERFKSLLQKMIHQHLSSRTHGSEDS
VH: QVQLVQSGAEVKKPGSSVKVSCKASGGTFSSYAISWVRQAPGQGLEWMGGIIPGYATANYAQKFQGRVTITADESTSTAYMELSSLRSEDTAVYYCARDAAGIRLFADWGQGTLVTVSS
VL: DIQMTQSPSSLSASVGDRVTITCRASQSIYGALNWYQQKPGKAPKLLIYGASNLQSGVPSRFSGSGSGTDFTLTISSLQPEDFATYYCQSTYTAPWTFGGGTKVEIK
notes: as for B2
Regarding B7, the “STAT3 activation in human whole blood” value in assay [5] was over 100 fold.

B8: xhCD8.1-hIL21 v27 (other)
chain: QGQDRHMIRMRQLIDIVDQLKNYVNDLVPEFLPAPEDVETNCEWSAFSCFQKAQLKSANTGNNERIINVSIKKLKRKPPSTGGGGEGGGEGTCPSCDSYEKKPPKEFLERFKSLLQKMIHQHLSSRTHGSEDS
VH: QVQLVQSGAEVKKPGSSVKVSCKASGGTFSSYAISWVRQAPGQGLEWMGGIIPGYATANYAQKFQGRVTITADESTSTAYMELSSLRSEDTAVYYCARDAAGIRLFADWGQGTLVTVSS
VL: DIQMTQSPSSLSASVGDRVTITCRASQSIYGALNWYQQKPGKAPKLLIYGASNLQSGVPSRFSGSGSGTDFTLTISSLQPEDFATYYCQSTYTAPWTFGGGTKVEIK
notes: as for B2
B8: in assay [3], the dissociation constant (Kd) is 0.106 nM, the koff came to 0.00139 s⁻¹ and the kon was 1.31e+07 M⁻¹ s⁻¹. Besides, in assay [4], the “fold difference in IL-21R affinity” value is at most 2 fold.

B9: xhCD8.1-hIL21 v31 (other)
chain: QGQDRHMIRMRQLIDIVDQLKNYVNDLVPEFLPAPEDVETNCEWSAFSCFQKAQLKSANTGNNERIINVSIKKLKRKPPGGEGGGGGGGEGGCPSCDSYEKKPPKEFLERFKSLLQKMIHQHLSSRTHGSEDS
VH: QVQLVQSGAEVKKPGSSVKVSCKASGGTFSSYAISWVRQAPGQGLEWMGGIIPGYATANYAQKFQGRVTITADESTSTAYMELSSLRSEDTAVYYCARDAAGIRLFADWGQGTLVTVSS
VL: DIQMTQSPSSLSASVGDRVTITCRASQSIYGALNWYQQKPGKAPKLLIYGASNLQSGVPSRFSGSGSGTDFTLTISSLQPEDFATYYCQSTYTAPWTFGGGTKVEIK
notes: as for B2
As to B9, in assay [3], binding was put at a Kd of 0.094 nM, the koff was 0.00113 s⁻¹ and the association rate constant (kon) was 1.2e+07 M⁻¹ s⁻¹. Also, the “fold difference in IL-21R affinity” value in assay [4] was at most 2 fold.

B10: xhCD8.1-hIL21 v2.45 (other)
chain: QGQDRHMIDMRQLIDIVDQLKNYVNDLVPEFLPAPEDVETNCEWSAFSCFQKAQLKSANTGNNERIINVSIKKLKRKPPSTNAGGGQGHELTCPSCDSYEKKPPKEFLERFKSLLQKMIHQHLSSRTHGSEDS
VH: QVQLVQSGAEVKKPGSSVKVSCKASGGTFSSYAISWVRQAPGQGLEWMGGIIPGYATANYAQKFQGRVTITADESTSTAYMELSSLRSEDTAVYYCARDAAGIRLFADWGQGTLVTVSS
VL: DIQMTQSPSSLSASVGDRVTITCRASQSIYGALNWYQQKPGKAPKLLIYGASNLQSGVPSRFSGSGSGTDFTLTISSLQPEDFATYYCQSTYTAPWTFGGGTKVEIK
notes: as for B2
B10: the binding result in assay [2] is “no binding”.

B11: xhCD8.1-hIL21 v2.65 (other)
chain: QGQDRHMIRMRQRIDAIDQLKNYVNDLVPEFLPAPEDVETNCEWSAFSCFQKAQLKSANTGNNERIINVSIKKIKRKPPSTNAGGGQGHELTCPSCDSYEKKPPKEFLERFKSLLQKMIHQHLSSRTHGSEDS
VH: QVQLVQSGAEVKKPGSSVKVSCKASGGTFSSYAISWVRQAPGQGLEWMGGIIPGYATANYAQKFQGRVTITADESTSTAYMELSSLRSEDTAVYYCARDAAGIRLFADWGQGTLVTVSS
VL: DIQMTQSPSSLSASVGDRVTITCRASQSIYGALNWYQQKPGKAPKLLIYGASNLQSGVPSRFSGSGSGTDFTLTISSLQPEDFATYYCQSTYTAPWTFGGGTKVEIK
notes: as for B2
On to B11, for which the “STAT3 activation in human whole blood” value in assay [5] was over 100 fold.

B12: xhCD8.1-hIL21 v2.46 (other)
chain: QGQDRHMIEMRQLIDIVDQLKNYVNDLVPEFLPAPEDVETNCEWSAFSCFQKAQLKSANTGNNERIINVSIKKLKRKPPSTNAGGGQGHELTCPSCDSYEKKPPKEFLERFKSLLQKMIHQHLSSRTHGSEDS
VH: QVQLVQSGAEVKKPGSSVKVSCKASGGTFSSYAISWVRQAPGQGLEWMGGIIPGYATANYAQKFQGRVTITADESTSTAYMELSSLRSEDTAVYYCARDAAGIRLFADWGQGTLVTVSS
VL: DIQMTQSPSSLSASVGDRVTITCRASQSIYGALNWYQQKPGKAPKLLIYGASNLQSGVPSRFSGSGSGTDFTLTISSLQPEDFATYYCQSTYTAPWTFGGGTKVEIK
notes: as for B2
As for B12, the binding result in assay [2] is on record as “no binding”.

B13: xhCD8.1-hIL21 v2.42 (other)
chain: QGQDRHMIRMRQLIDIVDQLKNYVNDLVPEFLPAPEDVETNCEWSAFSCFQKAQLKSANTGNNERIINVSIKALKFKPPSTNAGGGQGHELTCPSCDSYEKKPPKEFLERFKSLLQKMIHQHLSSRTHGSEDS
VH: QVQLVQSGAEVKKPGSSVKVSCKASGGTFSSYAISWVRQAPGQGLEWMGGIIPGYATANYAQKFQGRVTITADESTSTAYMELSSLRSEDTAVYYCARDAAGIRLFADWGQGTLVTVSS
VL: DIQMTQSPSSLSASVGDRVTITCRASQSIYGALNWYQQKPGKAPKLLIYGASNLQSGVPSRFSGSGSGTDFTLTISSLQPEDFATYYCQSTYTAPWTFGGGTKVEIK
notes: as for B2
As to B13, the binding result in assay [2] is listed as “no binding”.

B14: xhCD8.1-hIL21 v30 (other)
chain: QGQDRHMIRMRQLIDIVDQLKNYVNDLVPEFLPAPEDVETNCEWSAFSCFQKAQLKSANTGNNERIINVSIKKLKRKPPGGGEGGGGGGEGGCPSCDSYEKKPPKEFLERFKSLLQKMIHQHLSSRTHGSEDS
VH: QVQLVQSGAEVKKPGSSVKVSCKASGGTFSSYAISWVRQAPGQGLEWMGGIIPGYATANYAQKFQGRVTITADESTSTAYMELSSLRSEDTAVYYCARDAAGIRLFADWGQGTLVTVSS
VL: DIQMTQSPSSLSASVGDRVTITCRASQSIYGALNWYQQKPGKAPKLLIYGASNLQSGVPSRFSGSGSGTDFTLTISSLQPEDFATYYCQSTYTAPWTFGGGTKVEIK
notes: as for B2
In assay [3], B14 yielded a Kd of 0.093 nM, a koff of 0.00107 s⁻¹ and an on-rate constant (kon) of 1.16e+07 M⁻¹ s⁻¹. In addition, in assay [4], the “fold difference in IL-21R affinity” value was at most 2 fold.
